Where a chain is given by its changes, count along the chain named. Numbers in names are those of the source. Where “and” joins values, the source holds several entries; their conditions need not be identical. Identical values can stand only once. Like-named read-outs stand apart in the source and are kept apart here. Marks after values point to notes of the source that are not given here.
Assays:
[^3H]NECA-bound A2AR [1] = target: T1, [^3H]NECA-bound A2AR (Homo sapiens, UniProt P29274); design: method as in PMID 18664584; conditions: solubilised in DM; cited from earlier work
T1 construct: The library of Ala/Leu scan mutants in the receptor A2aR-(2–316) was expressed from plasmid pRG/III-hs-MBP in E. coli strain DH5α; made in house; host or cells: Escherichia coli DH5α
T1 sequence (P29274 2-316): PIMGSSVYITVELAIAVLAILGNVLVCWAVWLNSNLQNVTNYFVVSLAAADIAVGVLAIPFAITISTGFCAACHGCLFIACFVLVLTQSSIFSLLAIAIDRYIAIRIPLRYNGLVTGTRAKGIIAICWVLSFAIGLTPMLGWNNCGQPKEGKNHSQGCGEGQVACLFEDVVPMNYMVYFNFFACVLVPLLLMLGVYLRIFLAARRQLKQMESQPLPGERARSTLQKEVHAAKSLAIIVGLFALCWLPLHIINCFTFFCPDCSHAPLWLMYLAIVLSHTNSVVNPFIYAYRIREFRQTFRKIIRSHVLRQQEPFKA

[^3H]ZM241385-bound A2AR [2] = target: T2, [^3H]ZM241385-bound A2AR (Homo sapiens, UniProt P29274); experiment: Thermostability assay of detergent-solubilised receptor with [3H]ZM241385 bound; format: physicochemical; conditions: identical conditions; DDM
T2 construct: The library of Ala/Leu scan mutants in the receptor A2aR-(2–316) was expressed from plasmid pRG/III-hs-MBP in E. coli strain DH5α; made in house; host or cells: Escherichia coli DH5α
T2 sequence (P29274 2-316): as above
Description: (§1) An aliquot of E. coli cells (14 mL) was thawed on ice and resupended in 500 μL of buffer A [50 mM Tris–HCl (pH 7.4), 0.4 M NaCl, 250 μg/mL lysozyme (Sigma) and 1 mg/mL DNase I (Sigma), supplemented with complete ethylenediaminetetraacetic acid (EDTA)-free Protease inhibitor cocktail (Roche)] and incubated for 1 h at 4 °C. Samples were then sonicated for 1 min at 4 °C using a cup-horn sonicator. The receptors were solubilised by adding 1% DDM and incubated for 1 h at 4 °C. Insoluble material was removed by centrifugation (5 min, 13,000g, 4 °C). The solubilised receptors were partially purified with Ni-NTA agarose (Qiagen). Agarose beads (300 μL) pre-equilibrated in buffer A were added to 700 μL of solubilised receptor. […].
(§2) The sample was incubated for 45 min at 4 °C, then 30 min at the specified temperature and then 30 min at 4 °C. Receptor-bound and free radioligands were separated as previously described on mini gel-filtration columns.[26] Receptor-bound ligands were transferred to a 96-well plate (PerkinElmer) and mixed with 200 μL of Optiphase supermix (PerkinElmer). The bound ^3H-labeled ligand was determined using a 1450 Microbeta Trilux counter (1 min per sample).

[^3H]ZM241385-bound A2AR [3] = as above; format: physicochemical, human; conditions: for Binding of [^3H]ZM241385: at 4 °C, 100 nM radioligand
Description: as §1, §2

[^3H]NECA-bound A2AR [4] = Thermostability assay of detergent-solubilised receptor with [3H]NECA bound (ligand plus format); format: physicochemical, human
Description: as §1, with “[…]. After solubilisation in DDM, A2AR was bound to Ni^2+-NTA resin, washed to reduce the DDM concentration and then eluted (see Methods). […]. An” for “An”
as §2
For all the thermostabilisation studies carried out in our laboratory, the apparent Tm is the temperature for which 50% of the solubilised receptor remains folded after 30 min of incubation. The rate constant of the protein denaturation is a function of the temperature, and consequently, thermal denaturation of a protein can be compared to a chemical reaction for which the rate of the reaction is dependant on the temperature. Arrhenius established that any chemical reaction is temperature dependant. […]. The reference measurement representing the total binding activity of the sample A0 was considered to be measured at 4 °C. From the graphical representation t = Log10(t1/2) (Fig. 2c), we could extract a half-life for each construct at any temperature to define the improvement in stability of the various mutants compared to WT A2AR.

[5] = target: A2AR-GL26 (L48A-Q89A-T65A-A54L) (Homo sapiens, UniProt P29274, A54L/L48A/Q89A/T65A)
Sequence of A2AR-GL26 (L48A-Q89A-T65A-A54L) (P29274 whole entry L48A/A54L/T65A/Q89A): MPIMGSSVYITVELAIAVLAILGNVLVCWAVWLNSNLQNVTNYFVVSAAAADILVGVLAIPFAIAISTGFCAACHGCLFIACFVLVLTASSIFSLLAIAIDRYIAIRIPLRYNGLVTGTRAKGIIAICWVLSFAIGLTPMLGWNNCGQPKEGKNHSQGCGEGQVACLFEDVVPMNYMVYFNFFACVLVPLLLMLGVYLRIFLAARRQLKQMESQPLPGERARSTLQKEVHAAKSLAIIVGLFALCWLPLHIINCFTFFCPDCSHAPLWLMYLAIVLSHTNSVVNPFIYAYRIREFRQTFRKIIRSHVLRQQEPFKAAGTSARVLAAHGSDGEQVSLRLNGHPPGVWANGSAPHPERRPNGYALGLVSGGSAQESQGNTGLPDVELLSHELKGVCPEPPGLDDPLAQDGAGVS

Molecule: WT A2AR: wild-type human adenosine A2A receptor [reference compound]
- Apparent Tm in DM ([^3H]NECA-bound A2AR [1]): 23 °C
- Stability of [3H]ZM241385-bound versus [3H]NECA-bound A2AR ([^3H]ZM241385-bound A2AR [2]): 3.5 °C
- Apparent Tm, Antagonist [^3H]ZM241385 ([^3H]ZM241385-bound A2AR [3]; [3H]ZM241385 bound, DDM, 30 min heating, single thermostability curve): 32.0 ± 0.1 °C
- Apparent Tm, Antagonist [^3H]ZM241385 ([^3H]ZM241385-bound A2AR [3]; [3H]ZM241385 bound, DDM, 30 min heating, single thermostability curve, listed as WT): 32 °C
- Apparent Tm in DDM, Final values ([^3H]NECA-bound A2AR [4]; [3H]NECA bound, 0.025% DDM, replicate experiments): 28.6 ± 0.2 °C and 28.6 ± 0.2 (n = 8) °C
- Apparent Tm, Agonist [^3H]NECA ([^3H]NECA-bound A2AR [4]; [3H]NECA bound, DDM, 30 min heating, single thermostability curve, estimated error ± 0.5 °C): 28.5 °C

Molecule: Nc1nc2ccc(Cl)cc2c2nc(-c3ccco3)nn12 [CGS15943]
- Reduction of binding affinity versus WT A2AR [5]: 320 fold

B1: GL0: A2AR point mutant L48A, renamed GL0 (protein, UniProt P29274 1-412, looked up, variant L48A)
Adenosine receptor A2a: MPIMGSSVYITVELAIAVLAILGNVLVCWAVWLNSNLQNVTNYFVVSAAAADIAVGVLAIPFAITISTGFCAACHGCLFIACFVLVLTQSSIFSLLAIAIDRYIAIRIPLRYNGLVTGTRAKGIIAICWVLSFAIGLTPMLGWNNCGQPKEGKNHSQGCGEGQVACLFEDVVPMNYMVYFNFFACVLVPLLLMLGVYLRIFLAARRQLKQMESQPLPGERARSTLQKEVHAAKSLAIIVGLFALCWLPLHIINCFTFFCPDCSHAPLWLMYLAIVLSHTNSVVNPFIYAYRIREFRQTFRKIIRSHVLRQQEPFKAAGTSARVLAAHGSDGEQVSLRLNGHPPGVWANGSAPHPERRPNGYALGLVSGGSAQESQGNTGLPDVELLSHELKGVCPEPPGLDDPLAQDGAGVS
- Apparent Tm, Antagonist [^3H]ZM241385 ([^3H]ZM241385-bound A2AR [3]): 0 ^b °C
- Binding of [^3H]ZM241385 ([^3H]ZM241385-bound A2AR [3]): did not bind
- Apparent Tm in DDM, Single measurement ([^3H]NECA-bound A2AR [4]): 42.5 °C
- Improvement in stability (apparent Tm) of NECA-bound A2AR versus WT ([^3H]NECA-bound A2AR [4]; [3H]NECA bound, DDM): 13.6 °C
- Improvement in stability compared to WT based on t1/2 (decrease in rate of unfolding) ([^3H]NECA-bound A2AR [4]; [3H]NECA bound, DDM, from Fig. 2c): 49 fold

B2: Q89A: A2AR point mutant Q89A (protein, UniProt P29274 1-412, looked up, variant Q89A)
Adenosine receptor A2a: B1 Adenosine receptor A2a with A48L, Q89A
- Apparent Tm, Antagonist [^3H]ZM241385 ([^3H]ZM241385-bound A2AR [3]): 26 °C
- ΔTm, Antagonist [^3H]ZM241385 ([^3H]ZM241385-bound A2AR [3]): − 8 °C

B3: F79A: A2AR point mutant F79A (protein, UniProt P29274 1-412, looked up, variant F79A)
Adenosine receptor A2a: B1 Adenosine receptor A2a with A48L, F79A
- Binding of [^3H]ZM241385 ([^3H]ZM241385-bound A2AR [3]): did not bind

B4: T65A: A2AR point mutant T65A (protein, UniProt P29274 1-412, looked up, variant T65A)
Adenosine receptor A2a: B1 Adenosine receptor A2a with A48L, T65A
- Apparent Tm, Antagonist [^3H]ZM241385 ([^3H]ZM241385-bound A2AR [3]): 38 °C
- ΔTm, Antagonist [^3H]ZM241385 ([^3H]ZM241385-bound A2AR [3]): + 6 °C

B5: A54L: A2AR point mutant A54L (protein, UniProt P29274 1-412, looked up, variant A54L)
Adenosine receptor A2a: B1 Adenosine receptor A2a with A48L, A54L
- Apparent Tm, Antagonist [^3H]ZM241385 ([^3H]ZM241385-bound A2AR [3]): 38 °C
- ΔTm, Antagonist [^3H]ZM241385 ([^3H]ZM241385-bound A2AR [3]): + 6 °C

B6: S47A: A2AR point mutant S47A (protein, UniProt P29274 1-412, looked up, variant S47A)
Adenosine receptor A2a: B1 Adenosine receptor A2a with S47A, A48L
- Apparent Tm, Antagonist [^3H]ZM241385 ([^3H]ZM241385-bound A2AR [3]): 25.5 °C
- ΔTm, Antagonist [^3H]ZM241385 ([^3H]ZM241385-bound A2AR [3]): − 6.5 °C

B7: V282A: A2AR point mutant V282A (protein, UniProt P29274 1-412, looked up, variant V282A)
Adenosine receptor A2a: B1 Adenosine receptor A2a with A48L, V282A
- Apparent Tm, Antagonist [^3H]ZM241385 ([^3H]ZM241385-bound A2AR [3]): 33 °C
- ΔTm, Antagonist [^3H]ZM241385 ([^3H]ZM241385-bound A2AR [3]): + 1 °C

B8: F62A: A2AR point mutant F62A (protein, UniProt P29274 1-412, looked up, variant F62A)
Adenosine receptor A2a: B1 Adenosine receptor A2a with A48L, F62A
- Binding of [^3H]ZM241385 ([^3H]ZM241385-bound A2AR [3]): did not bind

B9: A236L: A2AR point mutant A236L (protein, UniProt P29274 1-412, looked up, variant A236L)
Adenosine receptor A2a: B1 Adenosine receptor A2a with A48L, A236L
- Apparent Tm, Antagonist [^3H]ZM241385 ([^3H]ZM241385-bound A2AR [3]): 38 °C
- ΔTm, Antagonist [^3H]ZM241385 ([^3H]ZM241385-bound A2AR [3]): + 6 °C

B10: GL4: A2AR mutant L48A-A54L (protein, UniProt P29274 1-412, looked up, variant L48A A54L)
Adenosine receptor A2a: B1 Adenosine receptor A2a with A54L
- Apparent Tm in DDM, Single measurement ([^3H]NECA-bound A2AR [4]): 46 °C

Reference: paper PMC3145977, “Thermostabilisation of an Agonist-Bound Conformation of the Human Adenosine A2A Receptor” (Journal of Molecular Biology, 2011)
